# Test results reported in the supplement of paper PMC9112550, “Optimization of the antimicrobial peptide Bac7 by deep mutational scanning” (BMC Biology, 2022).
# Tested on: Escherichia coli TOP10
# Test: shrunken log2 fold change of peptide-encoding DNA abundance (4.5 h post-induction vs induction); higher = less antimicrobial activity (less host growth inhibition)
# Conditions: time post-induction: 4.5 h; library: site-saturation at positions 5, 18, 19, 20
# 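Further: peptides expressed intracellularly from a pBAD plasmid library in pooled LB shake-flask culture, induced with 0.3% L-arabinose, DNA abundance read by NGS, three biological replicates, DESeq2 with apeglm shrinkage.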
row,Sequence,shrunken log2 fold change
1,RRIRKRPPRLPRPRPRPALHPRP,0.374
2,RRIRSRPPRLPRPRPRPCNYPRP,-0.455
3,RRIRQRPPRLPRPRPRPPFVPRP,0.0462
4,RRIRKRPPRLPRPRPRPQNLPRP,0.0263
5,RRIRLRPPRLPRPRPRPCIEPRP,-0.256
6,RRIRDRPPRLPRPRPRPTNRPRP,-0.149
7,RRIRRRPPRLPRPRPRPVHVPRP,0.0562
8,RRIRLRPPRLPRPRPRPFRTPRP,-0.0778
9,RRIRTRPPRLPRPRPRPQNCPRP,-0.373
10,RRIRRRPPRLPRPRPRPDSTPRP,0.187
11,RRIRVRPPRLPRPRPRPQWEPRP,0.0101
12,RRIRYRPPRLPRPRPRPQEFPRP,-0.00973
13,RRIRNRPPRLPRPRPRPNQRPRP,0.0166
14,RRIRPRPPRLPRPRPRPFATPRP,0.0676
15,RRIRIRPPRLPRPRPRPKSWPRP,0.327
16,RRIRCRPPRLPRPRPRPTERPRP,0.211
17,RRIRQRPPRLPRPRPRPLETPRP,0.181
18,RRIRRRPPRLPRPRPRPNDQPRP,0.261
19,RRIRCRPPRLPRPRPRPDLNPRP,0.127
20,RRIRHRPPRLPRPRPRPSSFPRP,0.0395
21,RRIRPRPPRLPRPRPRPMPDPRP,0.163
22,RRIRWRPPRLPRPRPRPYPFPRP,-0.0811
23,RRIRARPPRLPRPRPRPVEFPRP,0.108
24,RRIRIRPPRLPRPRPRPFPGPRP,-0.155
25,RRIRGRPPRLPRPRPRPIRYPRP,-0.0811

row,Sequence,shrunken log2 fold change
1,RRIRHRPPRLPRPRPRPTKAPRP,-0.0108
2,RRIRNRPPRLPRPRPRPHWLPRP,-0.101
3,RRIRWRPPRLPRPRPRPMVLPRP,-0.243
4,RRIRQRPPRLPRPRPRPHYDPRP,-0.295
5,RRIRGRPPRLPRPRPRPPYSPRP,-0.084
6,RRIRWRPPRLPRPRPRPASHPRP,0.187
7,RRIRKRPPRLPRPRPRPSDYPRP,-0.08
8,RRIRQRPPRLPRPRPRPQCDPRP,-0.146
9,RRIRIRPPRLPRPRPRPLDNPRP,0.0097
10,RRIRCRPPRLPRPRPRPHGTPRP,-0.0488
11,RRIRIRPPRLPRPRPRPTEFPRP,-0.408
12,RRIRARPPRLPRPRPRPQSVPRP,-0.037
13,RRIRTRPPRLPRPRPRPGQRPRP,0.118
14,RRIRERPPRLPRPRPRPPSDPRP,0.0848
15,RRIRVRPPRLPRPRPRPGNWPRP,0.0971
16,RRIRKRPPRLPRPRPRPQGPPRP,0.053
17,RRIRRRPPRLPRPRPRPWFIPRP,0.0648
18,RRIRCRPPRLPRPRPRPLGQPRP,0.16
19,RRIRVRPPRLPRPRPRPFIAPRP,-0.448
20,RRIRLRPPRLPRPRPRPLRQPRP,0.385
21,RRIRMRPPRLPRPRPRPQFSPRP,0.0281
22,RRIRIRPPRLPRPRPRPGHAPRP,-0.0343
23,RRIRDRPPRLPRPRPRPEVQPRP,0.988
24,RRIRMRPPRLPRPRPRPARSPRP,1.05
25,RRIRKRPPRLPRPRPRPEQCPRP,0.025

row,Sequence,shrunken log2 fold change
1,RRIRYRPPRLPRPRPRPLPTPRP,-0.0873
2,RRIRWRPPRLPRPRPRPIRKPRP,0.636
3,RRIRGRPPRLPRPRPRPPYGPRP,0.341
4,RRIRVRPPRLPRPRPRPNPPPRP,0.231
5,RRIRMRPPRLPRPRPRPCLHPRP,-0.608
6,RRIRERPPRLPRPRPRPPHRPRP,0.0387
7,RRIRLRPPRLPRPRPRPYRPPRP,-0.221
8,RRIRKRPPRLPRPRPRPGIVPRP,0.0403
9,RRIRDRPPRLPRPRPRPTVFPRP,0.708
10,RRIRPRPPRLPRPRPRPFQAPRP,-0.216
11,RRIRARPPRLPRPRPRPFNLPRP,-0.173
12,RRIRQRPPRLPRPRPRPCKFPRP,-0.194
13,RRIRNRPPRLPRPRPRPENGPRP,-0.0225
14,RRIRYRPPRLPRPRPRPMQIPRP,-6.27e-05
15,RRIRERPPRLPRPRPRPLMQPRP,0.0114
16,RRIRKRPPRLPRPRPRPDHTPRP,0.0503
17,RRIRFRPPRLPRPRPRPHSDPRP,-0.129
18,RRIRERPPRLPRPRPRPSDMPRP,-0.0552
19,RRIRTRPPRLPRPRPRPDCPPRP,-0.245
20,RRIRQRPPRLPRPRPRPFKLPRP,-0.152
21,RRIRNRPPRLPRPRPRPGYFPRP,-0.541
22,RRIRGRPPRLPRPRPRPRMLPRP,0.356
23,RRIRFRPPRLPRPRPRPPQHPRP,0.108
24,RRIRERPPRLPRPRPRPIAFPRP,0.0152
25,RRIRGRPPRLPRPRPRPSEQPRP,0.301
